Reference: US10689452 (UNIVERSIT T STUTTGART, dated 2020)

What was measured:
[1] = target: T1, human TNFR1-Fc fusion protein (human, UniProt P19438 29-211); experiment: QCM, human TNFR1-Fc immobilised, high receptor density (195 Hz)
T1 construct: range 29-211; Made in stably transfected HEK293 cells; coated on ELISA plates or immobilised on QCM chips; also called huTNFR1-Fc; human TNFR-Fc; not shown: Fc part from vector pSecTagL1-Fc
T1 sequence (looked up): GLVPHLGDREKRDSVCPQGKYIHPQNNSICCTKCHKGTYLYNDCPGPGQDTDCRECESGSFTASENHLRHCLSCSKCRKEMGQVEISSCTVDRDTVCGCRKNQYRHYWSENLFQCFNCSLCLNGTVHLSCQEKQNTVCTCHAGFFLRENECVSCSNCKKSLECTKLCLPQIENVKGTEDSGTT
Protocol: (§1) FIG. 1. […] Applied were triplicates of five concentrations between 3.9 nM and 62.5 nM.
(§2) Real-time binding dynamics in protein-protein interactions were determined by quartz crystal microbalance measurements (A-100 C-Fast or Cell-200 C-Fast, Attana, Stockholm, Sweden). One of the binding partners (ligand, e.g. TNFR1-Fc) was chemically immobilized on a carboxyl sensor chip according to the manufacturer's protocol at different densities (nearly 200 Hz in the case of saturating conditions to confirm previously published results and 50-100 Hz, in particular at about 50 Hz, to establish conditions of lower receptor density, better resembling the situation on the cellular surface). Binding experiments were performed with samples (analyte) diluted in PBST (PBS, 0.1% Tween 20) at pH 7.4 with a flow rate of 25 µl/min at 37° C. The chip was regenerated with 25 µl 5 mM NaOH or 20 mM glycine, pH 2.0. Every third measurement, an injection of running buffer was measured which was subtracted from the binding curve. Data were collected using the software provided by Attana for the particular device and analyzed by Attaché Office Evaluation software (Attana, Stockholm, Sweden) and TraceDrawe (ridgview instruments, Vange, Sweden).

[2] = target: T1, human TNFR1-Fc fusion protein; experiment: ELISA on coated huTNFR1-Fc, antibody titrated, signal as Binding [%]
Protocol: FIG. 13. […] Increasing concentrations were tested for their binding to huTNFR1-Fc in ELISA (n=3, mean±SD).
(§3) Microtiter plates were coated with 100 µl of the indicated protein (1 µg/ml in PBS, see Table 3.3) and incubated at 4° C. over night. The residual binding sites were blocked with 2% MPBS (skim milk in PBS, 200 µl per well) at room temperature for 2 hours and subsequently washed twice with PBS. 100 µl of the samples diluted in 2% MPBS were incubated at room temperature for 1 hour prior to the last incubation step with 100 µl of the HRP conjugated detection antibodies in 2% MPBS. In the case of competition experiments, both analyzed protein samples were prepared individually (either titrated or diluted to a single concentration) and mixed before they were applied to the plate. Bound protein was detected with 100 µl TMB substrate solution, the HRP-reaction was stopped by the addition of 50 µl 1 M H2SO4 and the absorption at the wavelength of 450 nm was measured using the Infinite microtiter plate reader (TECAN, Maennedorf, Switzerland). Between each incubation step and in advance of the detection, the plates were washed three times with PBST and twice with PBS.

[3] = target: T1, human TNFR1-Fc fusion protein; experiment: ELISA on coated human TNFR1-Fc, reference curve next to Fv13.7-Fckih0DS
Protocol: as §3

[4] = target: T1, human TNFR1-Fc fusion protein; experiment: QCM, human TNFR1-Fc, moderate receptor density (86 Hz), biphasic fit, kon1 (low-affinity part)
Protocol: as §2

[5] = target: T1, human TNFR1-Fc fusion protein; experiment: QCM, human TNFR1-Fc, moderate receptor density (86 Hz), biphasic fit, koff1 (low-affinity part)
Protocol: as §2

[6] = target: T1, human TNFR1-Fc fusion protein; experiment: standard ELISA, human TNFR1-Fc
Protocol: as §1, §3

[7] = target: T2, human TNFR1 on cells (HT1080, HeLa, Kym-1) (human, UniProt P19438 30-455); experiment: cell-based or functional assay
T2 sequence (looked up): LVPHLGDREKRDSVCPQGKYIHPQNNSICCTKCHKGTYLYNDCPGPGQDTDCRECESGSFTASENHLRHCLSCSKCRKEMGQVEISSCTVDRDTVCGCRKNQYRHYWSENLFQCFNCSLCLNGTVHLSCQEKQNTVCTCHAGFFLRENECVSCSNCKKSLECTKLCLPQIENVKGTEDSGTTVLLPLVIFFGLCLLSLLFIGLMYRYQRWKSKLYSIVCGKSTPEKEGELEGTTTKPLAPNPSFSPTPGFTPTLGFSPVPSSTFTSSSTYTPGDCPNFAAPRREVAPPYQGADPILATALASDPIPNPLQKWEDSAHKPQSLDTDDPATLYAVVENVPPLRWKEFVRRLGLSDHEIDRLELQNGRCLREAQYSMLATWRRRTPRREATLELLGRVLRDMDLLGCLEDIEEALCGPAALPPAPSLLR

[8] = target: T3, mouse TNFR2-Fc fusion protein (mouse, UniProt P25119 23-258); experiment: ELISA on coated receptor-Fc fusion proteins, one antibody concentration (not given on the sheet)
T3 construct: range 23-258; not shown: Fc part from vector pSecTagL1-Fc
T3 sequence (looked up): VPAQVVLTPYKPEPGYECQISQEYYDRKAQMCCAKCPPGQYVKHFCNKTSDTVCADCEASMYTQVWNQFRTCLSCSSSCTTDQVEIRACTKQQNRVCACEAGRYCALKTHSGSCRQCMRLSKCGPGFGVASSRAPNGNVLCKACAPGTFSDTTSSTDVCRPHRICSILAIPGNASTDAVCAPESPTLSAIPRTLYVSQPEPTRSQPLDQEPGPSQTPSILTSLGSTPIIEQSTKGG
Protocol: FIG. 12. Species selectivity of scFv13.7 derivatives. […] Presented are mean and SD of two individual experiments.
as §3

Factor (KD high density chip, ATROSAB against H398) [1]: 1.5 fold
Kd [1]: 0.35 nM
EC50 (read off the curve) [2]: ~1 nM
EC50 (read off the curve) [3]: ~0.2 nM
kon [4]: 282000 M⁻¹ s⁻¹
koff [5]: 0.0219 s⁻¹
EC50 [6]: 0.25 nM
Factor (EC50, ATROSAB against H398) [6]: 1.7 fold
Factor, IC50 LT (ATROSAB against H398) [7]: 12 fold
Factor, IC50 TNF (ATROSAB against H398) [7]: 10 fold
IC50, LT [nM] (inhibition of IL-8 release from HT1080 cells induced by LTα) [7]: 7.6 nM
IC50, TNF [nM] (inhibition of IL-8 release from HT1080 cells induced by 0.1 nM TNF) [7]: 42 nM
binding result [8]: no binding
B1: ATROSAB (antibody, IgG1, V domains shown)
VH: QVQLVQSGAEVKKPGSSVKVSCKASGYTFTDFYINWVRQAPGQGLEWIGEIYPYSGHAYYNEKFKARVTITADKSTSTAYMELSSLRSEDTAVYYCARWDFLDYWGQGTTVTVSS
VL: DIVMTQSPLSLPVTPGEPASISCRSSQSLLHSNGNTYLHWYLQKPGQSPQLLIYTVSNRFSGVPDRFSGSGSGTDFTLKISRVEAEDVGVYYCSQSTHVPYTFGGGTKVEIKR
notes: Humanized full-length IgG1 with a modified Fc region deficient in mediating effector functions (made according to WO2012035141); also called full length IgG ATROSAB
